# Molecular target: T1, human CD4 on human PBMCs (human, UniProt P01730 26-458)
# T1 construct: whole, on cells; the CD4-positive gate was set with the control antibodies OKT4 and RPA-T4; also called hCD4
# Assay: FACS, clonal hybridoma supernatant on PBMCs
Binder,% CD4 Stain,gMFI of CD4+
"75110_05L07A (antibody, V domains shown, Tested as clonal hybridoma supernatant of an AlivaMab Mouse Kappa antibody (human variable regions, kappa; detected with anti-mouse Fc)) VH: EVQLVESGGGLVQPGGSLRLSCAASGFTFSSYWMSWVRQAPGKGLEWVANINQDGSDKYYVDSVKGRFTISRDNVKNSLYLQINSLRAEDTAVYYCAREGGQWLTLDYWGQGTLVTVSS VL: not shown",37.9%,156000 gMFI
"75110_05G15A (antibody, V domains shown) VH: QVQLQESGPGLVKPSQTLSLTCTVSGGSISSGGYFWSWIRQHPGKGLEWIGCIYYSGSTYYIPSLKSRVTISVDTSKNQFSLKLRSVTAADTAVYYCARDGYDYWYFDLWGRGTLVTVSS VL: not shown",31.6%,326000 gMFI
"75110_06C16A (antibody, V domains shown, Tested as clonal hybridoma supernatant of an AlivaMab Mouse Kappa antibody (human variable regions, kappa; detected with anti-mouse Fc)) VH: QVQLQESGPGLVTPSETLSLSCTVSGGSISDYYWSWIRQPGGKGLEWIGRIYSSGSTNYNPSLKSRVTMSVDTSKNQFSLKLSSVTAADTAVYFCARDREDYYYYGMDVWGQGTTVTVSS VL: DIQMTQSPSSLSASVGDRVTITCQASHDISNYLNWYQQKPGKAPKLLIYAASNLETGVPSRFSGSGSGTDFSFTISSLQPEDIATYYCQQYDHLPLTFGGGTKVEIK",33.1%,270000 gMFI
"75110_05E05A (antibody, V domains shown, Tested as clonal hybridoma supernatant of an AlivaMab Mouse Kappa antibody (human variable regions, kappa; detected with anti-mouse Fc)) VH: QVQLQESGPGLVKPSETLSLTCTVSGGSIGSYYWSWIRQPAGKGLEWIGRIYTSGSTNYNPSLKSRVTMSFDTSKNQFSLKLNSVTAADTAVYYCATDGGVGDSLDYWGQGTLVTVSS VL: DIVMTQTPLSLPVTPGEPASISCRSSQSLLDSDDGNTYLDWYLQKPGQSPQLLIYTLSYRASGVPDRFSGSGSGTDFTLKISRVEAEDVGVYYCMQHIEFPFTFGPGTKVDIK",31.8%,64000 gMFI
"75110_05E13A (antibody, V domains shown, Tested as clonal hybridoma supernatant of an AlivaMab Mouse Kappa antibody (human variable regions, kappa; detected with anti-mouse Fc)) VH: EVQLVESGGDLVKPGGSLRLSCAASGFSFSNAWMSWVRQAPGKGLEWVGRVESKTDGGTTDYAAPVKDRFTISRDDSKYTLYLQMNSLKTEDSAVYYCTIGGGFGLELYGFFDYWGQGTLVTVSS VL: DIQMTQSPSTLSASVGDRVTITCRASQSISSWLAWYQQKPGKAPMLLIYKASSLESGVPSRFSGSGSGTEFTLTISSLQPDDFATYYCLQYNSYYTFGQGTKLEIK",38.9%,257000 gMFI
"75110_06D16A (antibody, V domains shown, Tested as clonal hybridoma supernatant of an AlivaMab Mouse Kappa antibody (human variable regions, kappa; detected with anti-mouse Fc)) VH: QVQLQQWGAGLLKPSETLSLTCAVYGGSFSGYYWSWIRQPPGKGLEWIGEINHSGSTNYNPSLKSRVTISVVTSKNQFSLKLSSVTAADTAVYYCARVLNWFDPWGQGTLVTVSS VL: DIQMTQSPSSVSASVGDRVTITCRASQDIADWLAWYQQKPGKAPKLLIYAASSFQSGVPSRFSGSGSGTDFTLTISSLQPEDFATYFCQQANSFPYTFGQGTKLEIK",39.2%,253000 gMFI

# Molecular target: T2, human CD4 on human PBMCs (human, UniProt P01730 26-458)
# T2 construct: whole, on cells; also called hCD4
# Assay: FACS, clonal hybridoma supernatant on PBMCs
Binder,% CD4 Stain,gMFI of CD4+
"75110_09N20A (antibody, V domains shown) VH: EVQLVESGGGLVQPGGSLRLSCAASGFTFSSYWMSWVRQAPGKGLEWVANINEDGSEKYYVDSVKGRFTISRDNAKNSLYLQMNSLRAEDTAVYYCVREGGQWLALDYWGQGTLVTVSS VL: DIQMTQSPSSVSASVGDRVTITCRASQGISSWLAWYQQKPGKAPKLLIYAASSLQSGVPSSFSGSGSGTDFTLTINSLQPEDFATYYCQQANSFPWTFGQGTKVAIK",37.5%,227000 gMFI
"75110_07H07A (antibody, V domains shown) VH: EVQVVESGGGLVQPGGSLRLSCAASGFTFSSYWMSWVRQAPGKGLEWVANIKEEGSEKYYVDSVKGRFTISRDNAKNSLYLQMNSLRAEDTAVYYCVREGGQWLALDYWGQGTLVTVSS VL: DIQMTQSPSSVSGSVGDRVTITCRASQGISSWLAWYQQKPGKAPKLLIFGASSLQSGVPSRFSGSGSGTDFTLTISSLQPEDFATYYCQQANSFPWTFGQGTKVQIK",37.1%,204000 gMFI
"75110_09G15A (antibody, V domains shown) VH: EVQLVESGGGLVQPGGSLRLSCAASGFTFSDYWMSWVRQAPGKGLEWVANINQDGSEKYSVDSVKGRFTISRDNAKNSLYLQMNSLRAEDTAIFYCAREGGQWLALDYWGQGTLVTVSS VL: DIQMTQSPSSVSASVGDRVTITCRASQGISSWLAWYQQKPGKAPKLLIYGASSLQSGVPSRFSGSGSGTDFTLTINSLQPEDFTTYYCQQANIFPWTFGQGTKVEIK",37.3%,237000 gMFI
"75110_07J02A (antibody, V domains shown) VH: EVQLVESGGGLVQPGGSLRLSCAASGFTFSSYWMSWVRQAPGKGLEWVANIKEDGSEKYYVDSVKGRFTISRDNAKNSLYLQMNSLRAEDTAVYYCARDGSYSGYGMDVWGQGTTVTVSS VL: AIQMTQSPSSLSASVGDRVTITCRASQGIRNDLGWYQQKPGKAPKLLIYAASSLQSGVPSRFSGRGSGTDFALTISSLQPEDFATYYCLLDYNYPYTFGQGTRLEIK",33.4%,228000 gMFI
"75110_08H11A (antibody, V domains shown) VH: EVQLVESGGGLVQPGGSLRLSCAASGFTFSSYDMHWVRQATGKGLEWVSTIGTAGDTYYPGSVKGRFTISRENAKNSLYLQMNSLRAGDTAVYYCARGGYSYYGMDVWGQGTTVTVSS VL: EIVLTQSPGTLSLSPGERATLSCGASQSVSSTYLAWYQQKPGQAPRLLIYGASSRATGIPDRFSGSGSGTDFTLTISRLEPEDFAVYYCQQFGSSPFTFGPGTKVDIK",27.1%,87000 gMFI
"75110_08H06A (antibody, V domains shown) VH: EVQLVESGGGLVQPGGSLRLSCAASGFTFSNYDMHWVRQATGKGLEWVSTIGTAGDTYYPGSVKGRFTISRENAKNSLYLQMNSLRAGDTAVYYCARGGYDYYGMDVWGQGTTVTVSS VL: EIVLTQSPGTLSLSPGERATLSCRASQSITSIYLAWYRQKPGQAPRLLIYGASSRATGIPDRFSGSGSGTDFTLTISRLEPEDFAVYYCQQYGSSPFTFGPGTKVDIK",28.1%,88800 gMFI
"75110_08K12A (antibody, V domains shown) VH: EVQLVESGGGLVQPGGSLRLSCAASGFTFSSYDMHWVRQATGKGLEWVSTIGTAGDTYYPGSVKGRFTISRENAENSLYLQMNSLRAGDTALYYCARGDYYYYGMDVWGQGTTVTVSS VL: EIVLTQSPGTLSLSPGERATLSCRASQSVSSTYLAWYQQKPGQAPRLLIYGASNRATGIPDRFSGSGSGTDFTLTISRLEPEDFAVYYCQQFGTSPFTFGPGTKVDIK",34.6%,175000 gMFI
"75110_07E04A (antibody, V domains shown) VH: EVQLVESGGGLVQPGGSLRLSCAVSGFTFSSYDMHWVRQATGKGLEWVSTIGTAGDTYYPGSVKGRFTISRENAKKFLYLQMNSLRAGDTAVYYCARGGYYYYGMDVWGQGTTVTVSS VL: not shown",36.1%,141000 gMFI
"75110_10N21A (antibody, V domains shown) VH: EVQLVESGGGLVQPGGSLRLSCAASGFTFSSYDMHWVRQVTGKGLEWVSTIGTAGDTYYPGSVKGRFTISRENAKNSLYLQMNSLRAGDTAVYYCARGGYYYYGMDVWGQGTTVTVSS VL: EIVLTQSPGTLSLSPGERATLSCRASQSFISSYLAWYQQKPGQAPRLLIYGASSRATGIPDRFSGSGSGTDFTLTISRLDPEDFAVYYCQQSGNSPFTFGPGTKVDVK",38.3%,203000 gMFI
"75110_10L22A (antibody, V domains shown) VH: EVQLVESGGGLVQPGGSLRLSCAASGFTFSSYDMHWVRQATGKGLEWVSTIGTAGDTYYPGSVKGRFTISRENAKNSLYLQMNGLRAGDTAVYYCARGNYFYYGVDVWGQGTTVTVSS VL: not shown",34.3%,77400 gMFI
"75110_06G04A (antibody, V domains shown) VH: QVQLLESGPGLVKPSETLSLTCTVSGGSISSYYWSWIRQPAGKGLEWIGRIYISGSTNYNPSLKSRVTMSIDTSENQFSLNLSSVTAADTAVYYCARELERPYYYGMDVWGQGTTVTVSS VL: DIQMTQSPSSLSASVGDRVTITCQASQDISNYLNWYQQKPGKAPKLLIYNASTLETGVPSRFSGSGSGTDFTFTISSLQPEDIATYYCQQYDNLPLTFGGGTKVEFK",34.8%,307000 gMFI
"75110_06K03A (antibody, V domains shown) VH: QVQLQESGPGLVKPSETLSLTCTVSGGSISTYYWSWIRQPAGKGLEWIGRINTSGSTTYNPSLKSRVTMSVDTSKNQFSLKLSSVTAADTAVYYCARELERYYYYGMDVWGQGTTVTVSS VL: DIQMTQSPSSLSASVGDRVTITCQASQDISNYLNWYQQKPGKAPKLLIYYASILETGVPSRFSGSGSGTDFTFTISSLQPEDIATYYCQQYDSLPLTFGGGTKVEIK",34%,320000 gMFI
"75110_08D24A (antibody, V domains shown) VH: QVQLQESGPGLVKPSETLSLTCTVSGGSISGFYWSWIRQPAGKGLEWIGRIYTSENTNYNPSLKSRVTMSVDTSKNQFSLKLSSVTAADTAVYYCARDREGYYYYGMDVWGQGTTVTVSS VL: DIQMTQSPSSLSASVGDRVTITCQASQDISNYLNWYQQKPGKAPKLLIYAASNLETGVPSRFSGSGSGTDFTFTISSLQPEDIATYYCQQYDSLPITFGQGTRLEIK",33.6%,332000 gMFI
"75110_06E14A (antibody, V domains shown) VH: QVQLQESGPGLVKPSETLSLTCTVSGGSISNYFWSWIRQPAGKGLEWIGRIYSSGNTNYNPSLKSRVTMSVDTSKNQFSLKLSSVTAADTAVYYCARDREDYYYYGMDVWGQGTTVTVSS VL: DIQMTQSPSSLSASVGDRVTITCQASQDISNYLNWYQQKPGKAPKLLIYGASILETGVPSRFTGSGSGTDFTFTISSLQPEDIATYYCQQYDSLPITFGQGTRLEIK",31.7%,225000 gMFI
"75110_08M20A (antibody, V domains shown) VH: QVQLQESDPGLVKPSETLSLTCTVSGGSISSYYWSWIRQPAGKGLEWIGRIYASGSTNYNPSLKSRVTMSVDTSKNQFSLKLSSVTAADTAVYYCARDREGYYYYGMDVWGQGTTVTVSS VL: DIQMTQSPSSLSASVGDRVTITCQASQDISKYLNWYQQKPGKAPNLLIYAASNLETGVPSRFSGSGSGTDFTFTISSLQPEDIAAYYCQQYDSLPITFGQGTRLEIK",34.1%,343000 gMFI
"75110_07B16A (antibody, V domains shown) VH: QVQLQQWGAGLLKPSETLSLTCAVYGGSFSGYYWSWIRQSPGKGLEWIGEINQSGSTNYNPSLKSRVTISVDTSKDQFSLKLSSVTAADTAVYYCARVINWFDSWGQGSLVTVSS VL: DIQMTQSPSSVSASVGDRVTITCRASQGISSWLAWYQQKPGKAPKLLIYDASSFQSGVPSRFSGSGSGTDFTLTISSLQTDDFATYYCQQANSFPYTFGQGTKLEIK",37.3%,189000 gMFI

# — patent US20220112288A1 (published 2022)
